Columns and labels:
[1] = target: MBP-Spc72^231-268 (C. albicans) (UniProt Q5AGV5); experiment: SEC; MBP-CM1 constructs at 100 µM
[2] = target: the molecule itself; experiment: cryo-EM structure; γ-TuSC/Spc72^1-599/FLAG-Stu2 complex purified via FLAG-Stu2; single particle analysis, γ-TuSC unit within oligomers at 3.6 Å, 14-spoked ring at 8.2 Å
[3] = target: T1, FLAG-Stu2 (C. albicans, full length) (C. albicans, UniProt A0A1D8PTZ8 1-924); experiment: pull-down; FLAG-Stu2 variants from insect cell lysate on anti-FLAG M2 gel, washed, then 20 µg purified Spc72 fragments from E. coli added for 1 h; 200 mM NaCl; eluted with 3xFLAG peptide, Western blot; also called IP or co-IP; details: both partners purified
T1 construct: Stu2, C. albicans, full-length Met1 to Glu924; FLAG tag followed by an HRV 3C cleavage site at the 5' end; also called wild-type FLAG-Stu2; source: Sf21 insect cells; not shown: FLAG, N-terminal, kept
T1 sequence (looked up): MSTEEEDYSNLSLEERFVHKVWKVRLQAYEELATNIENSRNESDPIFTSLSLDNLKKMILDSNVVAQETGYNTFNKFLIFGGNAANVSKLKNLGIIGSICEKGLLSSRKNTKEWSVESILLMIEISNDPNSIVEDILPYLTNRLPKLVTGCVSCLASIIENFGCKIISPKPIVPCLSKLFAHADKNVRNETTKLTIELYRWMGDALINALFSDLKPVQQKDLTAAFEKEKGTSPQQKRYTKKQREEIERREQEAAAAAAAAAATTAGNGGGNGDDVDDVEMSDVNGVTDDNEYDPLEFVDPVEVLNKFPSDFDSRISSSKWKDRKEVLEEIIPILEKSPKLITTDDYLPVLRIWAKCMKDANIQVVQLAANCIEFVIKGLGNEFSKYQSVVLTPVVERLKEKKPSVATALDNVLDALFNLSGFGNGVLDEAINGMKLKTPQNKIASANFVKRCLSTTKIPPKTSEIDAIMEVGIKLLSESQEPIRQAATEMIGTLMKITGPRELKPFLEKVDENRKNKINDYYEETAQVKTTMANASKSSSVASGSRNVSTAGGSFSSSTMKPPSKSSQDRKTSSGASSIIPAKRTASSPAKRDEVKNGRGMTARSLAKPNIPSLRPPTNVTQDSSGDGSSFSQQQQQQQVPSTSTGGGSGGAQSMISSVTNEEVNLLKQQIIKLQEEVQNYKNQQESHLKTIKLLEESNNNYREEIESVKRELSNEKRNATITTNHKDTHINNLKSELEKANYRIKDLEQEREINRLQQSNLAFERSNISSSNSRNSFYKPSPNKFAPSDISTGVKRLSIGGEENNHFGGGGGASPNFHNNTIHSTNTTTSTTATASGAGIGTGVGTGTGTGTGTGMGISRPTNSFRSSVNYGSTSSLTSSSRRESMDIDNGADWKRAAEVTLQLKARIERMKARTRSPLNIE

[4] = target: γ-tubulin small complex (γ-TuSC) from C. albicans: His-Spc97, His-Spc98, γ-tubulin (Tub4) (C. albicans, UniProt Q59PZ2 1-871; A0A1D8PS42 1-785; O93807 1-502); experiment: MST
[5] = target: GST-CM1^231-268 (GST-Spc72^231-268) (C. albicans) (UniProt Q5AGV5); experiment: mass photometry; MBP-CM1 and GST-CM1 constructs diluted to below 40 nM in SEC buffer; for the GST constructs: GST-mediated dimers to tetramers
[6] = target: the molecule itself; experiment: SEC-MALS + other: mass photometry; FLAG-Stu2 (10 µM) and His-Spc72^291-599 (60 µM) alone or mixed 1:1 (vol), Superdex 200 Increase 5/150, 50 mM Tris-HCl pH 7.5, 150 mM NaCl, room temperature; mass photometry below 40 nM
[7] = target: T2, FLAG-Stu2^∆666-768 (coiled-coil deletion mutant) (C. albicans, UniProt A0A1D8PTZ8 1-924, ∆666-768); experiment: pull-down; FLAG-Stu2 variants from insect cell lysate on anti-FLAG M2 gel, washed, then 20 µg purified Spc72 fragments from E. coli added for 1 h; 200 mM NaCl; eluted with 3xFLAG peptide, Western blot; also called IP or co-IP; details: both partners purified
T2 construct: Stu2, C. albicans (Met1 to Glu924), coiled-coil region 666-768 deleted
T2 sequence: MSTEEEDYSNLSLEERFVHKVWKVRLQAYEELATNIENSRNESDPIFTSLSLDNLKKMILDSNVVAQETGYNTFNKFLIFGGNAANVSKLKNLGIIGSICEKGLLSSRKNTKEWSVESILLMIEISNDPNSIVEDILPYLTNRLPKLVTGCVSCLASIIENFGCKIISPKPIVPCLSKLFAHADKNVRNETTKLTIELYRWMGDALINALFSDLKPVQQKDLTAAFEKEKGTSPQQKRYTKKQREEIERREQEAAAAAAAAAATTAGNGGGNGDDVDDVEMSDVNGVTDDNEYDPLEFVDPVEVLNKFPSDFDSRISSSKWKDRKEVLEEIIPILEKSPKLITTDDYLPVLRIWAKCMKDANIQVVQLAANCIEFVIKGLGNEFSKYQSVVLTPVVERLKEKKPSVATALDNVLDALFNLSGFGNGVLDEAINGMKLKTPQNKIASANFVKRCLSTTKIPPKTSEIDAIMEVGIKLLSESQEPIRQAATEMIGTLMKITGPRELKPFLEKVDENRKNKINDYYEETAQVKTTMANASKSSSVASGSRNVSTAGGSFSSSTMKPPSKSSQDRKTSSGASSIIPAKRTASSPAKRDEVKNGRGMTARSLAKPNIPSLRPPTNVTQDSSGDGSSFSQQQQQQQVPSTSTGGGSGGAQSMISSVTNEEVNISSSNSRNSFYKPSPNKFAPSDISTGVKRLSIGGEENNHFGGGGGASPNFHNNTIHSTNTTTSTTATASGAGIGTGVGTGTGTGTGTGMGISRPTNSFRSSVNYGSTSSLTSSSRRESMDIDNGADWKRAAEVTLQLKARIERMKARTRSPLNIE

[8] = target: T3, FLAG-tagged γ-TuSC (FLAG-Spc98, His-Spc97, γ-tubulin) (C. albicans, UniProt A0A1D8PS42 1-785; Q59PZ2 1-871; O93807 1-502); experiment: pull-down; FLAG-γ-TuSC (FLAG-Spc98) from insect cell lysate on anti-FLAG M2 gel, washed, then 20 µg purified His-Spc72 added for 1 h; 150 mM NaCl; eluted with 3xFLAG peptide, Western blot; called co-IP in the text; details: both partners purified
T3 construct: Spc98, C. albicans; Spc97, C. albicans; γ-tubulin (Tub4), C. albicans; also called FLAG-γ-TuSC; copies: + +

## MBP-Spc72^231-268 (from UniProt Q5AGV5 231-268) (domain or fragment)
[1]
  stoichiometry N: 2

B1: γ-tubulin (Tub4), C. albicans (natural protein, UniProt O93807 1-502, looked up)
chain: MPGETITLQVGQCGNQVGLQYWQQLATEHGIQSDGSSTPYPKDINDLQLQELNNSGSSPQSYPQQTKPNGKYRNDHPELFFTLSDSNTYTPRSILIDMEPSVIAKSTSALPMFNPRNVHLSNQGNGAANNWINGYKYGTEEEETLLNLIDREVDKCDNLSNFQLFHSVAGGTGSGVGSKMLEVISDRYGHKKLLNTFSIFPSNEDTSDVVVQPYNTILTLKRLIDYSDATFVFHNDSLNRIENILFNNNSNIQHDDNDLFLGANKLIALVSASVSNPLRFPGYMYSSMESIVSNLIPTPDLKFLTSSIAPFSTQKHNYLNEYDMLLELSNDRYKTNRVGGDTSYISMLNYLIGYNLDQREIRKGILKSQQRISFVPWVARSVLVVHGKKSPYLKNTNLEGIQVTNNTSMIDVFTKILKQFDLLIKRKAYLNRYYSSVEEENEVMEMFNESRESVKSIIDEYKACKEITYLDDDDEDDLEDGDGGGGGNGNGYNNIDDADMGI
notes: γ-tubulin (Tub4), C. albicans; Subunit of m1, written alone for the contacts in the cryo-EM structure
[2]
  binding result: binds

B2: His-GFP-Spc72^300-350 (domain or fragment, C. albicans, UniProt Q5AGV5 300-350, looked up)
chain: QTSTLEIQHQNLQIELDEALELNKQLYNKIETANKEISDKDLQISNYESRI
notes: Spc72, C. albicans, codons 300-350; source: E. coli BL21 CodonPlus-RIL; not shown: GFP, N-terminal, kept
[3]
  binding result: binds

B3: GST-CM1^231-268 (GST-Spc72^231-268) (domain or fragment)
chain: NIATTTKSREEELNKRIVNYKIQLKLMKNFLQELIDRN
[4]
  Kd: 105 nM
[5]
  stoichiometry N: 4

B4: His-Spc72^291-599 (domain or fragment, C. albicans, UniProt Q5AGV5 291-599, looked up)
chain: NNPLSTSLSQTSTLEIQHQNLQIELDEALELNKQLYNKIETANKEISDKDLQISNYESRINLINYSVDELIYILINEYDKNNYSHGGSNTTSPGKETLQQSISAQLEVKLNVLKLELMTRLDQSHQYNNKPHDLFTPPYTSSEYGVSTNNVANKNDLEGYIHIIEDLIKTVDELELTCENYKANKNELQNQLVEQINESIRIKNNFQIMSNKFNQLRQSLSEKENDKNLDEFSKNNHQQQQQQQIQQLEQKLIEYEKCITILQDELDQYKQPSDTTNTTNNNNNNNNNNNRSSYSSYNNHRNSSLNELN
notes: source: E. coli, purified (Ni-TED for pull-downs; Ni-NTA and SEC for HX-MS, SEC-MALS and mass photometry); not shown: His6, N-terminal, kept
[6]
  stoichiometry N: 2

B5: His-GFP-Spc72^430-480 (domain or fragment, C. albicans, UniProt Q5AGV5 430-480, looked up)
chain: TSSEYGVSTNNVANKNDLEGYIHIIEDLIKTVDELELTCENYKANKNELQN
notes: Spc72, C. albicans, codons 430-480; source: E. coli BL21 CodonPlus-RIL; not shown: GFP, N-terminal, kept
[3]
  binding result: binds

B6: His-Spc72^1-599 (C. albicans), from E. coli (domain or fragment, UniProt Q5AGV5 1-599, looked up)
chain: MSNLSINESNDNSNVSILSNKSGAQSSTNSSPNLIVFKQPEDLSIQLQQQQQGTQEDTPEEEEEEEEEMEQITQLEVQQENQPDTLSSSPFISRPNSPLDDIIRPQGTSSPSLTIRDSYSSQVDINISNLHKSLNEMRLSTDPVDNNNNNNKVNKNNPTNSDISNDDIITIDNLTPSRIQPKNISPWRQFRPTLRGSPESTPRSLFQNKPNLKFNNGLSPTNGSRDMVTNNIATTTKSREEELNKRIVNYKIQLKLMKNFLQELIDRNNLDPHEFHTLLRRNNNNIMNNENNPLSTSLSQTSTLEIQHQNLQIELDEALELNKQLYNKIETANKEISDKDLQISNYESRINLINYSVDELIYILINEYDKNNYSHGGSNTTSPGKETLQQSISAQLEVKLNVLKLELMTRLDQSHQYNNKPHDLFTPPYTSSEYGVSTNNVANKNDLEGYIHIIEDLIKTVDELELTCENYKANKNELQNQLVEQINESIRIKNNFQIMSNKFNQLRQSLSEKENDKNLDEFSKNNHQQQQQQQIQQLEQKLIEYEKCITILQDELDQYKQPSDTTNTTNNNNNNNNNNNRSSYSSYNNHRNSSLNELN
notes: source: E. coli BL21 CodonPlus-RIL, purified (Ni-TED); not shown: His6, N-terminal, kept
[3]
  binding result: binds
[7]
  binding result: binds

B7: His-Spc72^1-599,3R (L243R/I247R/L254R), from E. coli (domain or fragment)
chain: MSNLSINESNDNSNVSILSNKSGAQSSTNSSPNLIVFKQPEDLSIQLQQQQQGTQEDTPEEEEEEEEEMEQITQLEVQQENQPDTLSSSPFISRPNSPLDDIIRPQGTSSPSLTIRDSYSSQVDINISNLHKSLNEMRLSTDPVDNNNNNNKVNKNNPTNSDISNDDIITIDNLTPSRIQPKNISPWRQFRPTLRGSPESTPRSLFQNKPNLKFNNGLSPTNGSRDMVTNNIATTTKSREEERNKRRVNYKIQRKLMKNFLQELIDRNNLDPHEFHTLLRRNNNNIMNNENNPLSTSLSQTSTLEIQHQNLQIELDEALELNKQLYNKIETANKEISDKDLQISNYESRINLINYSVDELIYILINEYDKNNYSHGGSNTTSPGKETLQQSISAQLEVKLNVLKLELMTRLDQSHQYNNKPHDLFTPPYTSSEYGVSTNNVANKNDLEGYIHIIEDLIKTVDELELTCENYKANKNELQNQLVEQINESIRIKNNFQIMSNKFNQLRQSLSEKENDKNLDEFSKNNHQQQQQQQIQQLEQKLIEYEKCITILQDELDQYKQPSDTTNTTNNNNNNNNNNNRSSYSSYNNHRNSSLNELN
notes: The cloning of the E. coli construct of this mutant is not described; also called Spc72^3R mutant; source: E. coli BL21 CodonPlus-RIL, purified (Ni-TED)
[8]
  fold lower binding efficiency compared to Spc72^1-599: 1.7 fold

B8: His-GFP-Spc72^429-599 (domain or fragment, C. albicans, UniProt Q5AGV5 429-599, looked up)
chain: YTSSEYGVSTNNVANKNDLEGYIHIIEDLIKTVDELELTCENYKANKNELQNQLVEQINESIRIKNNFQIMSNKFNQLRQSLSEKENDKNLDEFSKNNHQQQQQQQIQQLEQKLIEYEKCITILQDELDQYKQPSDTTNTTNNNNNNNNNNNRSSYSSYNNHRNSSLNELN
notes: also called second coiled-coil module; source: E. coli BL21 CodonPlus-RIL, purified (Ni-TED); not shown: GFP, N-terminal, kept
[3]
  binding result: binds

— publication PMC11701102, “Structural insights into the interplay between microtubule polymerases, γ-tubulin complexes and their receptors” (Nature Communications, 2025)
